In the nanobody polyreactivity screen of Harvey et al. (2022):

Experiment: yeast display, Sf9 membrane polyspecificity reagent, FACS + sequencing; frameworks hold sequencing errors
How it was run: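 Sorting gates, low and high (top ~1%), were placed on anti-HA fluorescence to track expression and on streptavidin fluorescence to track reagent binding. A clone's polyreactivity label is taken from the gate it came out of. The reagent was 10% biotinylated, detergent-solubilized Sf9 membrane, applied for 1 hour at 4 °C to galactose-induced yeast display cells.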

Sequence	polyreactivity (PSR sort gate)
QVQLVESGGGLVQAGGSLRLSCAASGSTFDSYAMGWYRQAPGKEREFVAAISSCAGSSGRTSYADSVKGRFTISRDNATNTVYLQMNSLKPEDTAVYYCAKEYTLAKYREYDYWGQGTQVTVSS	low polyreactivity
QVQLVESGGGLDQAGGSLRLICAASGFIFVWYAMGWYRPAPGKERELVAAISRRGGGTYYADSVKGRFTISRDNAKNTVYLQMNSLKPEDTAVYYCAAGSYYRYGYDFNYWGQGTQVTVSS	high polyreactivity
QVQLVESGGGLVQAGGSLRLSCAASGRILRYNAMGWYRQAPGKERELVASISGNGGSTYYADSVKGRFTISRDNAKNTVYLQMNSLKPEDTAVYYCNKYYYSSRGQKEYDYWGQGTQVTVSS	low polyreactivity
QVQLVESGGGLVQAGGSLRLSCAASGIIFWQYAMGWYRQAPGKERELVAAISRSGGNTYYADSVKGRFTISRDNAKNTVYLQMNSLKPEDTAVYYCNARRYLRGYGYGYWGQGTQVTVSS	high polyreactivity
QVQLVESGGGLVQAGGSLRLSCAASGRTFIRYAMGWYRQAPGKESELVAAISSRGGRTHYADSVKGRFTISRDNAKNTVYLQMNSLKPEDTAVYYCAADLTYVTVPGASYDYWGQCTQVTVSS	low polyreactivity
QVQLVESGGGLVKAGGSLRLSCAASGFTYSTYAMGWYRQAPGKEREFVAAISRSGGSTYYADSVKGRFTISRDNAKNTVYLQMNSLKPEDTAVYYCAVRPYRSAGGSVTRGAYYYWGQGTQVTVSS	high polyreactivity
QVQLVESGGGLVQAGGSLRLSCAASGYTFINYAMGWYRQAPGKERELVAAITSTGSRTYYADSVKGRFTITRDNAKNTVYLQMNSLKPEDPAVYYCAAQVDRKYRWFNSWGQGTQVNVSS	high polyreactivity
QVQLVESGGGLVQAGGSLSLSCAASGRITRFNAMGWYRQAPGKERELVAAITRGASTYYADSVKGRFTISRDNAKNSVYLQMNRLKQEDTAVYYCAAAPRYSWTSVARYDYWGQGTQVTVSS	high polyreactivity
QVQLVESGGGLVQAGVSLRLSCAASGFILGYNAMGWYRQAPAKERELVAAITRGGSTYYADSVKGRFTISRDNSKNTVYLQMNSLKPEDTAVYYCAAAYRGYSSTLWLGHWGQGTQVTVSS	high polyreactivity
QVQLVESGGGLVQAGGSLRLSCAASGGTFWLYTMGWYRQAPGTERELVAAITKSGGSTYYADSVKGRFTISRDNAMNTVYLQMNSLKPEDTAVYYCAARYSVYRDGYYWGQGTQVTVSS	high polyreactivity
QVQLVESGGGLVQAGGSLRLSCAASGSTFTPYAMGWSRKAPGKERELVAVIRWRGGRTYYADSVQGRFTISRDNAKNTVYLQMNSLKPEDTAVYYCAAGGSQGAGGYGYYGYDYWGQGTQETVSS	low polyreactivity
QVQLVEAGGGLVQAGGSLRLSCAASGLTFTVYAMGWYRQAPGKERELVAAITGSGTSTYYADSVKGRFTISRDNAKNTVYLQMNSLKPEDTAVYDCAADLYYYGFFWDFGDGFDYWGQGTQVTVSS	low polyreactivity
QVQLVESGGGLVQAGGSLRLSCAASGSTFGEYAMGWYRQAPGKERELVASITFSAGSTDYADSVKGRFTISRDNAKNTVFLQMNSLKPEDTSVYYCAADGWWPWEYEYWGQGTQVTVSS	low polyreactivity
QVQLVESGGGLVQAGGSLRLSCAASGSIFSYYAMGWYRQAPGKEREFVAAITKSGGSTYYADSVKGRFTISRDNAKNTVYLQMNSLKPEDTAVYYCAVRYKLYYYGYDYWGQGTQVTVSS	low polyreactivity
QVQLVESGGGLVQAGGILRLSCDASGFTFGYYTMGWYRQAHGKEREFVAAITGGSGSTYYADSVKGRFTISRDNAKNTVYLQMNSLKPEDTAVYYCAASIWRGLTPLLIGFDYWGQGTQVTVSS	high polyreactivity
QVQLVESGGGLVQAGGSLRLICAASGFTFPVYARGWYRQAPGKERELVAAISSSGGTTYYADSVKGRFTISRDNAKNTVYLQMISLKPEDTAVYYCNAYYGSTAYGYDYWGQGTQVTVSS	low polyreactivity
QVQLVESGGGLVQAGGSLRLSFAASGSIFPSYAMVWYRQAPGKERELVARISSGDDSTYYADSVKGRFTISRDNAKNTVYLQMNSLKPEDNAVYYCAADYPDVVYLEYDYWGQGTQVTVSS	low polyreactivity
QVQLVESGGGLVQAGGSLRLSCAASGFTFEVNAMGWYRQAPGKERELVAAINRGGSTYYADSVKGRFTISRDNAKNTVYFQMNSLKPEDTAVYYCNRDYEYPTYPHDYWGQGTQVTVSS	low polyreactivity
QVQLVESGGGLVQAGGSLRLTCAASGSIFCAYTMGWSRQAPGKECDLVAAISASGGSTYYADSVKGRFTISRDNAKNTVYLQMNSLNPDDTAVYYCAAVYDLGYYGPIWAIVLDDYWGQGTQVTVSS	low polyreactivity
QVQLVESGGGLVQAGASLRLSCAPSASIFSYNAMGWYSQAPGKERELVAAIDWSGGSTYYADSVKGRFTISRDNAKNTVYLQMNSLKPEDTEVYYCNAVGVFYYSYHYHQSDYWGQGTQVTVSS	low polyreactivity
QVQLVESGGGLVQAGGSLRLSCDASGSSFDYYARGWYRQAPGTERELVAAITSTGRTYYADSVKGRFTISRDNAKNTVYLQMNSLKPDDTAVYYCAADQPWGPLFDYWGQGTQVTVSS	low polyreactivity
QVQLVESGGGLVQAGGSLRLSCAASGSTFAGYAMGWYRQPPGKERELVAAISYSGGTTYYADSVKGRFTISRDNAKNTVYLQMNSLKPEDTAVYYCAARKKFKTPSYDMYYWGQGTQVTVSS	high polyreactivity

Sequence	polyreactivity (PSR sort gate)
QGQLVESGGALVQAGGSLRISCAASGRTISQNSMGLYRPAPGKERELVAAIRRGGSTNYADSVKGRFTISRDNAKNTVFLQMNSLKQEDSAFYYCAGDLRRNGWGFDYWGQGTQVTVSS	high polyreactivity
QVQLVESGGGLVQAGGSLRLSCAASGRTFPYYAMGWYRQAPGKERELVAAISSSGGRTYYADSVKGRFTISRDNAKNTVYLQMNSLKPEDTAVYYRNVDAWYPYQGFLVGYYYWGQGTQVTVSS	low polyreactivity
QVQLVESGGGLVQAGGSLRLSCAASGRIFLKYSMGWYRQAPGKERELVAAISRGGSTYYADSVKGRFTISRDNAKNTVYLQMNSLKPEDTAVYYCAATSYRRTGYNYWGQGTQVTVSS	high polyreactivity
QVQLVESGGGLVQAGGSLRLSCASSGIIYNQNTMGWYRQAPGKERELVAAITFSGGRTSYADSVKGRFTISRDNAKNTFYLQMNSLKPEDSAVYYCNKALWGLYGYWGHGTQVTVSS	low polyreactivity
QVQHVESGGGLVQAGGSLRLSCAASGFTFVYYVMGWYRQAPGKERELVAAINAGGGSTYYADSVKGRFTISRDNAKNTVYLQMNSLKPEDTAVYYCNARVRVRLGRNWSSYYYWGQGTQVTVSS	high polyreactivity
QVQLVESGGGLVQAGGSLRLSCAASGITFAVYTMGWYSQAPGKERELVAAITGSGGRTYYADSVKGRFTISRDNAKNTVYLQMNSLKPEDTAVYYCNAVQRSSRQTFEYWGQGTQVTVSS	low polyreactivity
QVQLVDSRGLLVQAGGSLRLSCAASGSTYSYYAMGWYRQAPGKERELVAAITRGGSTYYADSVKGRFTISRDNAKNTVYLQMNSLKPEDPAVYYCSATHVSRRWGMDYWGEGTQVTVSS	high polyreactivity
QVQLVESGGGLVQAGGSLRLSFAASGRTFGYYAMGWYRHAPGKERELVAAITRNGGRTYYADSVKGRFTISSDNAKNTFYLQMNSLKPEDTAVYYCAKDQYKPEAFYYWGQGTQVTVSS	high polyreactivity
QVQLVESGGGLVQAGCRLRLSCAASGITFYSYAMGWYRQAPGKERELVAAITLTGGTTYYADSVKGRFTISRDNAKNTVYLQMNSLKPEDTAVSYCAAQYWWWSRFEYDSWGQGTQVTVSS	low polyreactivity
QVQLVESGGGLVQAGGSLRLSSAASGRIFIDYAMGWYRQAPGTDRELVATITSSGGSTYYADSVKGRFTISRDNAKNTVYIQMTSLKPVDTAVYYCNAKERYYFGNYKYGYWGQGTQVTVSS	low polyreactivity
QVQLVESGGGLVQAGGSLRLSCAASGITLYRYVMGWYRQAPGKERELVADISGRGTSTYYADSVKGRFTISRDNAKNTVYLQMNSLKPEETAVYYCNAEYTKTGALVIPYTYYYAEDYWGQGTQVTVSS	low polyreactivity
QVQLVESGGGLVQAGGSLRLSCAASGSTFPYYVMGRYRQAPGKERELVAAITRSTGTTYYADSVKGRFTISRDNAKNTVYLQMNSLKPEDTAVYYCAARSSSSPRWYGGDYWGQGTQVTVSS	low polyreactivity
QVQLVESGGGLVQAGGSLRLSCAASGFTFIYNAMGWYRQAPGKERELVAAISYRTSRTYYADSVKGRFTISRDNAKNTVYLQMNSLKPEDTAVYYCAKGYGRHGLDYWGQGTQVTVSS	high polyreactivity
QVQLVESGGGLVQAGGSLRLSCAASGRTVVTNAMGWYRQAPGKERELVATINWSGGRTHYADSVKGRFTISRDNAKITVYLQMNSLIPEDTAVYYCAKASSRRYWTIRDGDYWGQGTQVTVAS	low polyreactivity
QVQLVESGGGLVQAGGSLRLSCAASGSTFDVYAMGWYRQAPGKERELVAAIDVRDSTTYYADSVKGRFTISRDNAKNTVYLQMNSLKPEDTAVYYCAAEADIEYGDDDYWGQGTQVTVSS	high polyreactivity
QVQLVESGGGLVQAGGSLRLSCAASGLIFWHYAMGWYIQAPGKERELVARISYGGGSTYYADSVKGRFTISRDNAKNTVYLQMISLKPEDTSVYYCNAKYYSVSQYYWGQGTQVTVSS	high polyreactivity
QVQLVESGGGLVQAGGSLRLSCAASGSIFFVYAMGWYRQAPGKERELVAAITWSGGRTYYADSVKGRFTISRDNAKNTVYLQMNSLKPEDTAVYYCAARKYSDYFTPRYYYWGQGTQVTVSS	high polyreactivity
QVQLVESGGGLVQAGGSLRLSSAASGRIFDDNAMGWYRQAPGKERELVAAITGPDDSTDYADSVKGRFTISRDNAKNTVYLQMNSLKPEDTAVYYCAKDAGYWYYWNGYWGQGTQVTVSS	high polyreactivity
QVQLVESGGGLVQAGGSLRLSCAASGYTFHGYAMGWYRQAPGKERELVAVITQRGGSTYYADSVKGRFTISRDNAKNTVYLQMNSLKPEDTAVYYCAARYAGPSPTDTGHDYWGQGTQVTVSS	low polyreactivity
QVQLVESGGGLVQAGGSLRLSCAASGSTFYFNSMGWYRQAPGKERELVAAITSGARTKYADSVKGRFTMSRDNAKITVYLQMNSLKPEDTAVYYCSASGLYYYRYRYYYWGQGTQVTVSS	high polyreactivity
QVQLVESGGGLVEAGGSLRLSCAASGFTFHYYTMGWYRQAPVKERELVASINYSGGRTYYADSVKGRFTISRDIAMNTVYLQMNSLKPEDTAVYYCNARYKSTYYYWGQGTQVTVSS	high polyreactivity
